Test results as given in patent publication CN114262377A (XINJIANG YOUMAI BIOTECHNOLOGY CO LTD, dated 2022).

T1: mFc-CD70
T1 sequence (P32970 whole entry, species assumed, looked up): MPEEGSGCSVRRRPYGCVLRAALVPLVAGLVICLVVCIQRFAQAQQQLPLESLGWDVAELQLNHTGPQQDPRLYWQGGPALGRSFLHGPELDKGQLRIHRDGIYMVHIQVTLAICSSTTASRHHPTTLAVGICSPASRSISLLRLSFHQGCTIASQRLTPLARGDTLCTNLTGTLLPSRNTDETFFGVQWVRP

T2: cyno-CD70-His (cynomolgus monkey, UniProt A0A2K5WTU9 39-190)
T2 construct: also called 食蟹猴CD70蛋白; 猴CD70; not shown: His tag
T2 sequence: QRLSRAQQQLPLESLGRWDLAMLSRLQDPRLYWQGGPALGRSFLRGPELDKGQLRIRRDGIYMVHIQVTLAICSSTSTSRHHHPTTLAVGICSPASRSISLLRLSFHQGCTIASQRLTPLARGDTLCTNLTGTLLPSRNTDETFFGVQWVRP

T3: human CD70-His (human, UniProt P32970 39-193, limits assumed)
T3 construct: also called 重组CD70蛋白; human CD70-His (Cat#CDL-H82D7); not shown: His tag
T3 sequence (looked up): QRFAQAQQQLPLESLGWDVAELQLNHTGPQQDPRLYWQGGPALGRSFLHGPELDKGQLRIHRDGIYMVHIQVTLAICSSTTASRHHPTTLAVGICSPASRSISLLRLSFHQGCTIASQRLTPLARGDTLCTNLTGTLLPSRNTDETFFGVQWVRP

T4: CD70 on 卵巢癌细胞SKOV3 (UniProt P32970 1-193, limits assumed)
T4 construct: whole, on cells; also called 肿瘤细胞
T4 sequence (looked up): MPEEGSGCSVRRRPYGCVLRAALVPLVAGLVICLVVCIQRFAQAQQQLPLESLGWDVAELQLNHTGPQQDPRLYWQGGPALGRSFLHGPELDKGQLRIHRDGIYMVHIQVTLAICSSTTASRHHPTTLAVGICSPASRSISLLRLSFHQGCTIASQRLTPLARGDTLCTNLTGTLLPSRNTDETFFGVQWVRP

T5: mouse CD70-His (mouse, UniProt O55237 45-195, limits assumed)
T5 construct: also called 鼠CD70; not shown: His tag
T5 sequence (looked up): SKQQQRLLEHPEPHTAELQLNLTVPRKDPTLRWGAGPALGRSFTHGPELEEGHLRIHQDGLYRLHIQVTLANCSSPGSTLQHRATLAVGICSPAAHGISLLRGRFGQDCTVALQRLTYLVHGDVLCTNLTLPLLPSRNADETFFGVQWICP


Columns and labels:
[1] = target: T1, mFc-CD70; assay: competition ELISA: blocks mFc-CD70 (75 ng/ml) binding to coated human CD27-His
[2] = target: T2, cyno-CD70-His; assay: ELISA, cyno-CD70-His coated 0.5 ug/ml, HRP-anti-human Fc
[3] = target: T3, human CD70-His; assay: ELISA, human CD70-His coated 0.5 ug/ml, HRP-anti-human Fc
[4] = target: T3, human CD70-His; assay: BLI (Fortebio), AHC sensor, antibody loaded at 4 ug/ml, human CD70-His trimer 60 nM in solution
[5] = target: T4, CD70 on 卵巢癌细胞SKOV3; assay: flow cytometry (MFI) on SKOV3 cells, goat anti-human IgG Fc-FITC
[6] = target: T5, mouse CD70-His; assay: ELISA, mouse CD70-His coated 0.5 ug/ml, HRP-anti-human Fc

IC50 [1] | EC50 [2] | EC50 [3] | Kd [4] | EC50 [5] | binding result [6] | Binder
0.0576 µg/mL | 0.00571 µg/mL | 0.0244 µg/mL | < 1 pM | 1740 pM | no binding | CHO细胞表达的含有人IgG-Fc结构域的CD70纳米抗体VHH-B6-Fc (Fc fusion, Order VHH then Fc follows the printed name; also called XJ-B6; VHH-B6 (as named in the results of the Fc-format assays); not shown: human IgG Fc domain) QVQLQESGGGSVQAGGSLRLSCVASDLIVNDGCMAWFRQVPGKEHEGVARIAIPTTPGSTLYADSVKGRFTISRDGAKNTLYLQMNSLKPEDTAVYYCAADQWASRGCTAIATIPAEFDYWGQGTQVTVSS
0.06 µg/mL |  | 0.0251 µg/mL | < 1 pM | 374 pM | no binding | CHO细胞表达的含有人IgG-Fc结构域的CD70纳米抗体VHH-B3-Fc (Fc fusion, Order VHH then Fc follows the printed name; also called XJ-B3; VHH-B3 (as named in the results of the Fc-format assays); not shown: human IgG Fc domain) LQESGGGSVQAGGSLRLSCAASGIIVNDGCMAWFRQVPGKEREGVAGIVIGEYGGGTTYYADSVKGRFTISRDRAKNTLYLQMNSLKPEDTAMYYCAADQWASGGCTSIATFSDEFDYWGQGTQVTVSS
